In the supplement of paper PMC12042874:
± gives the uncertainty stated by the source.

Assay: amyloid nucleation score (Sup35N fusion, yeast selection) (log enrichment); library NNK2; higher = more nucleation; inactive = no reads after selection
Procedure, shortened: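 Using DiMSum, nucleation scores were taken as the log enrichment of output over input reads, centred on the mode score of non-aggregating sequences. The input and output reads came from Illumina sequencing of plasmid inserts, with sequences under 100 input reads excluded. The yeast were psi-negative, expressed Sup35N fused to peptides of 20 random codons, were induced with 100 μM copper sulfate for 24 hours, and were grown 7 days at 30°C on medium lacking adenine and uracil.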

| Substance | amyloid nucleation score |
| --- | --- |
| VGFISTMWHMYSELLGQINV | -0.499 ± 0.76 |
| VGIYMIWLISSS | inactive |
| VGKVFLIPGSFYEIRLMTYF | 1.62 ± 0.13 |
| VGLSPSSASTHLRN | 1.07 ± 0.33 |
| VGRCTINFIRLRDWVRLRQN | -0.082 ± 0.6 |
| VGRVNIVSDLMVPNSHYICS | -0.056 ± 0.76 |
| VGSNKGAIIGLMIVGGVVIA | 3.11 ± 0.16 |
| VGSVICMFMCWFA | 4.75 ± 0.036 |
| VGWHPPVLTEYTMDQTAYTT | 1.39 ± 0.29 |
| VHLGRV | -0.678 ± 0.48 |
| VHLPCGYLKFRGLMYWRREL | 0.479 ± 0.34 |
| VHLSKDLCYLLSGYGYFPCF | -0.216 ± 0.36 |
| VHQFADFNKIMNGLDDLLLK | 2.65 ± 0.081 |
| VIAFYVAFFNRTRVSYRSLW | 4.22 ± 0.06 |
| VICGLTPDRDAHMYLTIFWL | 0.578 ± 0.81 |
| VIEYRVFRKYPCNCFLRGLS | -0.865 ± 0.39 |
| VIFLVDNCCMACDSLEPRTI | 0.513 ± 0.25 |
| VIGASRRVWHRLKHKA | 0.994 ± 0.34 |
| VIHMVPMTEGGLPCTV | -0.139 ± 0.56 |
| VIHSPQMLSWSSHGNARFSK | 0.628 ± 0.33 |
| VIKCLVPSLIKSFRRHWFNT | -0.708 ± 0.79 |
| VIKMVMEVPVTGFPRSRNSF | -0.369 ± 1.1 |
| VILGVGKTTNFYSSFFIRVW | inactive |
| VIMVTSPQFKKPKLYMDKRD | -1.03 ± 0.54 |
| VINSMY | 1.11 ± 0.45 |

| Substance | amyloid nucleation score |
| --- | --- |
| VINTEVCIEGGRQVRPAPRL | 1 ± 0.41 |
| VISKVSLDVCRCIRFLHYDS | 7.692 ± 0.061 |
| VISQRLFS | -0.155 ± 0.74 |
| VIVVRNQRKFVTSDLPLKVC | 1.04 ± 0.35 |
| VIYLHVYGCVNLVSVLVHSL | 1.87 ± 0.12 |
| VKALNH | 0.66 ± 0.33 |
| VKAVMWIDLVNRVIMNGHIS | -0.461 ± 0.49 |
| VKCLGAFGDE | -0.012 ± 1.1 |
| VKINSTDMSMVQNCNYLIWV | -0.531 ± 1.1 |
| VKNCDWGIYIILSGFMRVTR | -1.27 ± 1.1 |
| VKPVFWKLGWRDYLYSMRQF | -1.11 ± 0.3 |
| VKRYGINGGFNYSSYCTAGI | inactive |
| VKYRDIMSRGSVVRQNDKVS | inactive |
| VLAGLMVNSGVL | -0.34 ± 0.3 |
| VLCSCCLVVNIVNVLSVHSY | 8.363 ± 0.06 |
| VLDFLVSCADYSWSLNNCES | -0.91 ± 0.76 |
| VLDTMYGTDIQRRTMGKANT | 0.391 ± 0.36 |
| VLELLGPIMSRKIFLKVGFC | inactive |
| VLHKNTKMANTWVHNPTEVE | -0.328 ± 0.27 |
| VLINEHYGYRFFCFNCADGK | 8.228 ± 0.036 |
| VLIRSSDNWWAEGSGVLGSC | 0.201 ± 1 |
| VLKKA | 0.185 ± 0.8 |
| VLKVRHVFEGGTEVILQSNR | 2.22 ± 0.2 |
| VLLQNYAMVAFT | -1.07 ± 0.45 |
| VLNISMLLWIYNTYGNDGKV | 8.029 ± 0.08 |

| Substance | amyloid nucleation score |
| --- | --- |
| VLRNKVVCSYQLYLRWFGKD | 1.64 ± 0.37 |
| VLSSHRFNEAKMN | -0.366 ± 0.41 |
| VLTFRRMHD | 0.398 ± 0.65 |
| VLWCGDLFAYLYMYVFSSNS | 7.516 ± 0.051 |
| VLWVS | inactive |
| VLYGVCIVCCSWSMTSC | 0.959 ± 0.6 |
| VMCFNTMKC | 7.386 ± 0.044 |
| VMFSVDHRLTQ | -0.354 ± 0.35 |
| VMFVTSV | 0.201 ± 0.29 |
| VMGCFSIGGLGMGVPMVYSR | 0.651 ± 0.44 |
| VMGYGKRLMSHLGMKSRTRL | 0.468 ± 0.29 |
| VMHFDLQICDRVHSRKSAPR | 8.523 ± 0.038 |
| VMHSYDYVTMGFRSRTDPFR | 3.05 ± 0.14 |
| VMIWVTA | 0.637 ± 0.25 |
| VMNHWCNVWSFPWTMVRTHQ | 0.352 ± 0.31 |
| VMNVNSCGWVVRHNR | 4.97 ± 0.1 |
| VMPIFNYWV | 0.121 ± 0.3 |
| VMYKAFFRYFGR | 1.71 ± 0.24 |
| VNECSFYIIPQTAQWCLVV | 0.086 ± 0.5 |
| VNFRVGCLVSYMNVK | 2.6 ± 0.13 |
| VNIWAVNICC | 7.8 ± 0.048 |
| VNNATKIGWSSMAIRDNKTI | -0.142 ± 0.49 |
| VNQLYWILCAYMVLCVGRDA | 4.54 ± 0.093 |
| VNRIASKWVYLLMNEFYSI | -1.21 ± 0.61 |
| VNWRLKHWLGEDDPLPVTSF | -0.267 ± 0.63 |

| Substance | amyloid nucleation score |
| --- | --- |
| VPDGHWSTHRRFSYMQVLNW | -0.441 ± 1.1 |
| VPIKGHNRHMMNYNSEKAGS | -1.13 ± 0.76 |
| VPNFRS | 4.16 ± 0.037 |
| VPSQASGTRACKHNWTVWLE | 1.33 ± 0.25 |
| VPVFFGPFQYT | -0.419 ± 0.63 |
| VQFPSVMFICRIARRRTY | 0.746 ± 0.67 |
| VQFRAHSCLLA | 0.841 ± 0.74 |
| VQGPHSFNGVGCRPFSNERR | -0.202 ± 1.1 |
| VQLGVHV | 0.14 ± 0.4 |
| VQMYCRSSAQPRVAILAMSG | 1.16 ± 0.12 |
| VRCEESWGDIICD | inactive |
| VRCGGVSFGSMWVLDSILVR | 0.652 ± 0.15 |
| VRDFCRWASDVRCSNGWRVA | 0.384 ± 0.65 |
| VRDLTCSNNITILFMHW | 6.13 ± 0.079 |
| VREGSNRVSRFHNGWHQSGL | -0.555 ± 0.79 |
| VREYQSWPKGCCT | 4.78 ± 0.065 |
| VRFVMNRSHHRSRWEAVAFN | 0.255 ± 0.48 |
| VRGPIGHLCICSAMSLGWIH | 2.67 ± 0.11 |
| VRHGMSIFSCYPVTPTRLER | 0.266 ± 0.38 |
| VRLCKYENSSWLSFRFQVQG | 0.56 ± 0.39 |
| VRLLSFEINSWWLCACCRSV | 7 ± 0.076 |
| VRLPLIVYLKSAYTSPPWGS | -0.702 ± 1.1 |
| VRLSWCNMFNRVFPI | 0.3 ± 0.8 |
| VRMSSRRS | 1.24 ± 0.36 |
| VRNGMANKGNDGRAAWEVNG | 1.25 ± 0.21 |

| Substance | amyloid nucleation score |
| --- | --- |
| VRNSCSTLLYASVESVFWI | 3.28 ± 0.048 |
| VRQYPSTVPSLWLYVGSRH | 4.19 ± 0.069 |
| VRRMRG | 1.18 ± 0.42 |
| VRSLN | 0.058 ± 0.6 |
| VRWTTFRECWAGYGGYVIGR | 1.19 ± 0.17 |
| VRYDGSKAFEVYMNQIENGS | -0.905 ± 0.33 |
| VRYFGDILFMSALYNLAGFA | inactive |
| VSAGVTREGLEVGTVFGP | 0.379 ± 0.44 |
| VSAGWSTST | 3 ± 0.09 |
| VSDACRLDYLLAHILELGSM | -1.08 ± 0.78 |
| VSHRG | 2.37 ± 0.076 |
| VSIVRYIFSPNWFVTIASIY | -1.51 ± 0.49 |
| VSKLNLLNIHCAKPFLLEL | 3.38 ± 0.13 |
| VSLLNGYGAHSDMSAVGRRR | 0.649 ± 0.47 |
| VSLNCKRRALMTWYVKGLFG | -0.073 ± 0.22 |
| VSNPSSQMNC | 0.042 ± 0.16 |
| VSNYMIVKIQWFHIVVGPGL | 5.598 ± 0.031 |
| VSPALK | -0.055 ± 1.1 |
| VSRII | inactive |
| VSSHNCWFFRGSGWFLFHHW | inactive |
| VSSPLAWKFLVNKICISDGG | inactive |
| VSTILYLDY | 0.218 ± 1.1 |
| VSTTLTCEMLSVAVLFT | 0.886 ± 0.3 |
| VSVVFNARPHRDSHNPSAER | 6.129 ± 0.054 |
| VSVWYGGLVRVRSTWCKIKF | 1.13 ± 0.13 |

| Substance | amyloid nucleation score |
| --- | --- |
| VSYPVCMGKWHGSTRILNRH | 0.669 ± 0.27 |
| VSYVYVKGFGVWFLCTCSPR | 5.74 ± 0.072 |
| VTAAIIVFCNGVLVRWTFIM | -0.99 ± 1 |
| VTCCVTSEWVGFLDWWSDRQ | 10.13 ± 0.043 |
| VTDYYYLCKFKSRVP | -0.799 ± 0.78 |
| VTFCMQVRAG | 0.524 ± 0.33 |
| VTFFTAFLTFVYCCMMLMYM | 7.32 ± 0.078 |
| VTGDMTLFAWNLMGA | 0.625 ± 0.43 |
| VTGNKEVMKIRCWVAHEESD | 1.32 ± 0.37 |
| VTIIVLPANVMLMWVFCYMY | -0.93 ± 0.78 |
| VTNSVSHIVDCCAHSERVWV | 0.111 ± 0.39 |
| VTPDLDCLRDNDMVCGGPDQ | 0.171 ± 0.23 |
| VTRPMDDTRVRVSNCVDWII | 0.511 ± 0.38 |
| VTSICNPDVIMEEKLGDNRG | -0.416 ± 0.28 |
| VTVCC | 1.69 ± 0.2 |
| VTVNE | 0.711 ± 0.21 |
| VTYFTILNHMCW | 6.602 ± 0.04 |
| VTYLMCLWAGVARG | -0.324 ± 1.1 |
| VTYWFLLHNIRRLPRYIWLR | -0.664 ± 0.48 |
| VVAFRMSSDNAHSHDLPVPW | 5.59 ± 0.073 |
| VVAVVPYFN | -0.202 ± 1.1 |
| VVCEASTCDMLESEWFWAEF | 0.226 ± 0.23 |
| VVDTGFQRTGKSWIINDRGM | 0.253 ± 0.14 |
| VVDTMNFNYCVVCSLRSVWQ | 10.5 ± 0.058 |
| VVFTGWYHEGWRVV | 0.914 ± 0.18 |

| Substance | amyloid nucleation score |
| --- | --- |
| VVGFSMFYKWDMNSMVSRMS | 2.27 ± 0.084 |
| VVGTPCL | 0.542 ± 0.41 |
| VVHQVSVGHCWVSR | 0.683 ± 0.21 |
| VVNCCGWMVPVGPSHW | 10.32 ± 0.035 |
| VVRAFTDKPRSVSDSLGVIN | 1.16 ± 0.18 |
| VVRVFLKGSSCGSLEAFDYV | 2.86 ± 0.19 |
| VVWARYSVNLWMNLGSQASF | 4.01 ± 0.1 |
| VVWSN | 0.845 ± 0.29 |
| VVYPCFSIMLQMEVLYIVFI | 1.33 ± 0.33 |
| VVYRLDFRPFNSPPCMRSAS | 0.074 ± 0.32 |
| VWLALEWVLGWSTMR | 1.73 ± 0.19 |
| VWLCHSVNHIAISNE | 1.12 ± 0.45 |
| VWMYITSW | -1.12 ± 0.55 |
| VWTES | 1.83 ± 0.25 |
| VWVPQSVIRSLHLPSN | -1.01 ± 1.1 |
| VWWVAFYSGTKI | 0.019 ± 1.1 |
| VWYITIYIWGMRRLIAWRMS | 0.31 ± 0.74 |
| VWYLFKNAFHMVFKTEWYEG | -1.52 ± 0.54 |
| VYATFPSTIYLMLVFMESGV | inactive |
| VYCFSAFLGQ | 3.63 ± 0.082 |
| VYCVGNMSLGGLMDNCWYAG | 4.41 ± 0.062 |
| VYEKVVLGKDFVM | -0.28 ± 0.79 |
| VYFMCLWGFI | -0.453 ± 1.1 |
